From US20230183337A1 (UNIVERSIT D AIXMARSEILLE, published 2023)

T1: human Nectin-4 (cell surface nectin-4 on SUM190 tumor cells; nectin-4 in breast cancer tissues) (UniProt Q96NY8 32-510)
T1 chain: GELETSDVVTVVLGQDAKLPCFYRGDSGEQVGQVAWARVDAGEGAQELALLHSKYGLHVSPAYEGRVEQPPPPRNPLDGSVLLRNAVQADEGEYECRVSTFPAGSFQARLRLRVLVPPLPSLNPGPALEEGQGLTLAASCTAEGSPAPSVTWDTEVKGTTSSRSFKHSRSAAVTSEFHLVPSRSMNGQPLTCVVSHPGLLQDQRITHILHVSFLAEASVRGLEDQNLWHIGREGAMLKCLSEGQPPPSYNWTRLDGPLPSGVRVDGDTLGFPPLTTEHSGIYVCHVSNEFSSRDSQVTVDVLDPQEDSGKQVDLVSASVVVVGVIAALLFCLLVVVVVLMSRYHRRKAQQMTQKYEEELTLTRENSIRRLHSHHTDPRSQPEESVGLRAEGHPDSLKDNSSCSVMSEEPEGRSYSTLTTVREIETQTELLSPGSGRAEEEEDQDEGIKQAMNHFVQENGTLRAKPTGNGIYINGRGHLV

T2: human Nectin-4 (cell surface nectin-4 on SUM190 tumor cells; nectin-4 in breast cancer tissues) (human, UniProt Q96NY8 32-510)
T2 construct: Endogenous nectin-4 of the human SUM190 breast cancer cell line (FACS) and of patient FFPE tumour tissue (IHC); also called PVRL4
T2 sequence: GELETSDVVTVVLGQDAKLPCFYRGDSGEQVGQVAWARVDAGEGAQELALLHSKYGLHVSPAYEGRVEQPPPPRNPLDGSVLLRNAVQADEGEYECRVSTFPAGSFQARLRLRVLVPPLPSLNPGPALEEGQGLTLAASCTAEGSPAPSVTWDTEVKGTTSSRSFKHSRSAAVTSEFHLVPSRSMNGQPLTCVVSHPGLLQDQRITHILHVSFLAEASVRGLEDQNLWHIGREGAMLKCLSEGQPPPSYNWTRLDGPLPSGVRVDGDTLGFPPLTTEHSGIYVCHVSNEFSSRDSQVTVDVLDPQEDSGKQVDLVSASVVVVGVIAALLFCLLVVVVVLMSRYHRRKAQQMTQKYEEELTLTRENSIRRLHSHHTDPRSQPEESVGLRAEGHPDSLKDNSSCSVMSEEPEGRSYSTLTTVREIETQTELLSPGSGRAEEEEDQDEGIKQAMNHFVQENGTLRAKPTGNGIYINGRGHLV

T3: Nectin-4 (SUM190 cells) (UniProt Q96NY8 32-510)
T3 chain: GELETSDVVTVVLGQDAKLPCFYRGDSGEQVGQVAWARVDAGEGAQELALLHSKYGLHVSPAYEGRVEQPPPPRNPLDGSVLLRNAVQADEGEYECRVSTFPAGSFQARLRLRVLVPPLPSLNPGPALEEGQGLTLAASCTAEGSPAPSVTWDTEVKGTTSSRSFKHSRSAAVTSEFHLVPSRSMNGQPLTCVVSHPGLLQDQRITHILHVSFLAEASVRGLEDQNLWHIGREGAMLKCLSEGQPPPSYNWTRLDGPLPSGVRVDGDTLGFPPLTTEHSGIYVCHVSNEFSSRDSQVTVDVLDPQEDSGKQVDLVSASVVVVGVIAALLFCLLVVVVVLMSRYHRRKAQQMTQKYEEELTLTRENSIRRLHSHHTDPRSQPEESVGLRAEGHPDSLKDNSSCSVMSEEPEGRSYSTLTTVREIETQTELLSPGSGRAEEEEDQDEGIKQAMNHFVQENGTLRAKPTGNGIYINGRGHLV


Columns and labels:
[1] = molecular target: T1, human Nectin-4 (cell surface nectin-4 …); experiment: FACS
[2] = molecular target: T2, human Nectin-4 (cell surface nectin-4 …); experiment: FACS on SUM190 cells, serial dilutions of mAb
Protocol: MAbs were tested for binding to cell surface nectin-4 expressed by SUM190 tumor cells. […] F-Max value corresponds to the maximum fluorescence intensity (a.u.) measured by FACS analysis.
FACS analysis was performed on SUM190 breast cancer cell line using indicated concentration of nectin-4 monoclonal antibodies. Cells were then stained with phycoerythrin conjugate goat anti mouse antibody (Beckman-Coulter).
KD values were defined by FACS analysis using serial dilutions of monoclonal antibodies. […] Maximum fluorescence intensity was measured by FACS analysis.

[3] = molecular target: T3, Nectin-4 (SUM190 cells); experiment: FACS

EC50 [1] [µg/mL] | binding result [2] | EC50 [3] [µg/mL] | Binder
0.018 | binds |  | murine monoclonal antibody 5A12.2 (hybridoma CNCM I-5407) (antibody, V domains shown, Whole murine monoclonal antibody from a hybridoma with a kappa light chain; also called mAb 5A12.2; 5A12.2 mAb) VH: QIQLQQSGAELVKPGASVTLSCKTSGFTFNSMYISWLKQKPGQSLEWIAWIYAGTGGTRFNQKFTGKVQLTVDTSSSTAYMQFSSLTTDDSAIYYCAIRSGFVPMDYWGQGTSVTVSS VL: SIVMTQTPKFLLVSAGDRVTITCKASQSVSNDVAWYQQKPGQSPKLLIYYASNRYTGVPDRFTGSGYGTDFTFTISTVQAEDLAVYFCQQDYSSPWTFGGGTKLEIK
 |  | 0.052 | N41 (antibody, V domains shown) VH: QVQLKQSGPGLVQPSQSLSITCTVSGFSLTNYGVHWVRQSPGKGLEWLGVIWSGGSTDYNAAFISRLSISKDTSKSQVFFKMNSLQADDTAIYYCARELIHAMDNWGQGTSVTVSS VL: DIQMTQSPASLSVSVGETVTITCRASENIYSNLAWYQQKQGNSPQLLVFAATNLADGVPSRFSGSGSGTQYSLKINSLQSEDFGTYYCQHFWGTPTFGGGTKLEIK
 |  | 0.034 | 14A5 (antibody, V domains shown) VH: EVLLQQSGPELVKPGASVKIPCKASGYTFTDYTMDWVKQSHGKSLEWIGDINPNNDVTMYNEKFKGRATLTVDKSSSTAYMEVRSLTSEDTAVYYCVRGRGFAYWGQGTLVTVSA VL: DIVLTQSPASLIVSLGQRATISCRASQSVSTSSNSYMHWYQQKPGQPPKLLIRFASNLESGVPARFSGSGSGTYFTLNIHPVEEEDSATYYCQHSWEIPYTFGGGTKLEIK
